Measured values taken from publication PMC6213189, “ABD-Derived Protein Blockers of Human IL-17 Receptor A as Non-IgG Alternatives for Modulation of IL-17-Dependent Pro-Inflammatory Axis” (International Journal of Molecular Sciences, 2018).
Ends that are not written are not given here. TolA = 305-residue helical TolA spacer protein; AVI = AviTag

B1: His6-ARS014-TolA-AVI (designed binder)
chain: His6-LAEAKVLANRELDKYGVSDVYKNLINYAWLVMWVPIDAILALLP-{TolA-AVI}
modifications: also: biotin on the AviTag (in vivo biotinylated)
notes: ABD-derived variant selected by ribosome display; positions 35-36 are deleted; source: E. coli BL21 (DE3) BirA, purified (Ni-NTA); not shown: His6, N-terminal, kept; TolA spacer protein (305 residues), C-terminal, kept
B2: His6-ARS012-TolA-AVI (designed binder)
chain: His6-LAEAKVLANRELDKYGVSDVYKLINMALYVTGVKPWIDVILAVLP-{TolA-AVI}
modifications: also: biotin on the AviTag (in vivo biotinylated)
notes: ABD-derived variant selected by ribosome display; position 23 is deleted; source: E. coli BL21 (DE3) BirA, purified (Ni-NTA); not shown: His6, N-terminal, kept; TolA spacer protein (305 residues), C-terminal, kept
B3: His6-ARS043-TolA-AVI (designed binder)
chain: His6-LAEAKVLANRELDKYGVSDLYKNMINMALWVTGVKWLIDPILATLP
modifications: not fully specified (C-terminus); also: His6-TolA-AviTag fusion, not in given chain, biotin on the AviTag (in vivo biotinylated)
notes: ABD-derived variant selected by ribosome display; source: E. coli BL21 (DE3) BirA, purified (Ni-NTA); not shown: His6, N-terminal, kept; TolA spacer protein (305 residues), C-terminal, kept
B4: His6-ARS019-TolA-AVI (designed binder)
chain: His6-LAEAKVLANRELDKYGVSDMYKNVINIAWWVSIVKYPIDCILALLP
modifications: not fully specified (C-terminus); also: His6-TolA-AviTag fusion, not in given chain, biotin on the AviTag (in vivo biotinylated)
notes: as for B3
B5: His6-ARS004-TolA-AVI (designed binder)
chain: His6-LAEAKVLANRELDKYGVSDVYKLINYACPVTWVKWVIDPILAMLP-{TolA-AVI}
modifications: also: biotin on the AviTag (in vivo biotinylated)
notes: as for B2

Biological target: T1, human IL-17RA on the cell surface (human (endogenous in THP-1 and HaCaT), UniProt Q96F46 33-866)
T1 construct: human IL-17 receptor A, endogenous on the surface of human cell lines; Expression on THP-1 was confirmed with an anti-IL-17RA antibody; also called cell-surface IL-17RA; IL-17RA-expressing THP-1 cells; source: endogenous, on THP-1 cells; endogenous, on HaCaT cells
Test: LigandTracer Green Line (real-time binding to cells); adherent HaCaT cells on a dish; biotinylated His6-ARS-TolA-AVI added stepwise (3, 30, 90 nM by the results), then dissociation in fresh medium or PBS (ARS043); one-to-one model, TraceDrawer
Settings: one partner purified

| Binder | Kd [nM] |
| --- | --- |
| B1 | 2 |
| B2 | 35 |
| B3 | 32 |
| B4 | 0.7 |
| B5 | 1.2 |
